We go through 1 molecule from patent US20240376556, “BIOSENSORS FOR DETECTING AND/OR NEUTRALIZING BIOAVAILABLE URANIUM AND RELATED U-SENSITIVE GENETIC MOLECULAR COMPONENTS, GENE CASSETTES, VECTORS, GENETIC CIRCUITS, COMPOSITIONS, METHODS AND SYSTEMS” (LAWRENCE LIVERMORE NATIONAL SECURITY, LLC, published 2024).

This series deals with T1, UrpR (CCNA_01362), native in cells (Caulobacter crescentus NA1000).
T1 chain: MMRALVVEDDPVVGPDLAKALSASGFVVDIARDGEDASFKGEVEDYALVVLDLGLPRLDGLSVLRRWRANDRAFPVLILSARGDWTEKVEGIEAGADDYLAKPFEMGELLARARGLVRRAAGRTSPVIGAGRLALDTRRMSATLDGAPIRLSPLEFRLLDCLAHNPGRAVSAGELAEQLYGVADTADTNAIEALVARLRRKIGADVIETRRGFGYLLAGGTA
Briefly: cell_activity; P1361-gfp induction in wild type with 20 uM U; U induction abolished by CCNA_01362 deletion.

B1: P1361 promoter (dsDNA)
DNA 1: GAACGATAGCGCCGCCTGCGAGCGCGACCTCAGGCCTCGGACGAAGCGCGTCCGGGGCCTTTTCTTGTCGATGTTCAGCGCCTGGTTACCGGCGATGGCGCGGTGTCAGCGTTCGGGCGTTGCGATGCGTCAGGAGCGTGTCAGGATGCCTGTGGAATCCTAAGCGCCATCACCCAGTCCCGATCTTTCC
DNA 2: GGAAAGATCGGGACTGGGTGATGGCGCTTAGGATTCCACAGGCATCCTGACACGCTCCTGACGCATCGCAACGCCCGAACGCTGACACCGCGCCATCGCCGGTAACCAGGCGCTGAACATCGACAAGAAAAGGCCCCGGACGCGCTTCGTCCGAGGCCTGAGGTCGCGCTCGCAGGCGGCGCTATCGTTC
For the molecule B1, the activity was 10.5 fold.
